This is an account of results in PMC6636993.

For orientation: stoichiometry N means the number of molecules, sites or subunits per partner or assembly.

For test [1], the target named is PVY coat protein N-terminal deletion mutant ΔN49 (potato virus Y (NTN strain)). Briefly: cryo-EM 2D class averages.
The target is the same in test [2]. Briefly: SEC-MALS.

“PVY coat protein N-terminal deletion mutant ΔN49 (domain or fragment)”: the stoichiometry N in test [1] and in test [2] was 8 in each case.
